Source: the DeepSol protein solubility set

Assay: soluble on expression in E. coli; label from the status in PepcDB or PDB records

With “MSLKKPLIVQKFGGTSVGSIERMQTVAEHIIKAKNDGNQVVVVVSAMAGETNRLVGLAQQVDSVPNARELDVLLSAGEQVSMALVAMTLHKMGYAARSLTGAQANIVTDNQHNDATIKHIDTRTITELLEQDFIVIVAGFQGINENGDITTLGRGGSDTSAVALAGALNADECQIFTDVDGIYTCDPRIVPSARKLDVIDFPSMEEMARKGAKVLHLPCVQYAWKHAVPLRVLSTFEVNQGSLIKGSAATHAVCGIALQRDMALIRVESESFPSIIKQCQMLGIEVCTTIDEPTHSAFVIKRDAYAKLQLVGADKIRGSEPVSLITKVGIQAGALVAHARQTLAQHGIDVRYVSASEQSSMLMLDPANVDRAANILHETYVTSEIPQEFGLKQTFLGEGHHHHHH” as the sequence, how does the “soluble on expression in E. coli” value read?
Its value is “not soluble”.

For “MEDKIGTTLTTRTVTGSLTPFIPIQDGDQLLVNGRSQDLYGWIYITELLDVINVYPLSLNNNSIVNFQPGTNIFFQLESSSYSSMRVPVARNVAIGKTTTLKGYVGLPDNAGIKFFDDSSIKK”, which “soluble on expression in E. coli” value is on record?
The value was “not soluble”.

For “FNLKTPGREDDASSESGDNAEAERAPAFIRALGGAANLEVVDACTTRLRLRLVDRNKASDAQLKALGAMAVVRPGKAGSLQVVVGPQADSIADEIRRALPFDTQPGEAVPPLGSPHTAEEVVAMQATVDAAEAQAWLGALGGAGNLREVRDVALTRLRVSVADERKLATEQLRRLGGQGVSSLAGGICHILVGPRAAALSQALQPLLR”, which “soluble on expression in E. coli” value is on record?
The value was “not soluble”.

Which “soluble on expression in E. coli” value does the source give for “MKKAVVVFSGGQDSTTCLVQALKEFDEVHAITFDYGQRHKLEIEVAQQLAKQLGVTAHKVMDVSLLNELAISSLTRDDIPVSHELQANGLPNSFVPGRNILFLTLAGIYAYQIGATTVITGVCETDFSGYPDCRDEFVQAMNQALAKGMDLPLMIRTPLMWLNKAETWALADQLGALDLVRHQTLTCYNGLIGDGCGECPACGLRQAGLKAYLDNRDLIMSALKSKQSAAH” here?
The value was “not soluble”.

With “MNLVETAQAIKTGKVSLGIELGSTRIKAVLITDDFNTIASGSYVWENQFVDGTWTYALEDVWTGIQQSYTQLAADVRSKYHMSLKHINAIGISAMMHGYLAFDQQAKLLVPFRTWRNNITGQAADELTELFDFNIPQRWSIAHLYQAILNNEAHVKQVDFITTLAGYVTWKLSGEKVLGIGDASGVFPIDETTDTYNQTMLTKFSQLDKVKPYSWDIRHILPRVLPAGAIAGKLTAAGASLLDQSGTLDAGSVIAPPEGDAGTGMVGTNSVRKRTGNISVGTSAFSMNVLDKPLSKVYRDIDIVMTPDGSPVAMVHVNNCSSDINAWATIFHEFAARLGMELKPDRLYETLFLESTRADADAGGLANYSYQSGENITKIQAGRPLFVRTPNSKFSLPNFMLTQLYAAFAPLQLGMDILVNEEHVQTDVMIAQGGLFRTPVIGQQVLANALNIPITVMSTAGEGGPWGMAVLANFACRQTAMNLEDFLDQEVFKEPESMTLSPEPERVAGYREFIQRYQAGLPVEAAAGQAIKYLEHHHHHH” as the sequence, how does the “soluble on expression in E. coli” value read?
The value was “soluble”.

Which “soluble on expression in E. coli” value does the source give for “MEIYHQYIKLRKQFGRFPKFGDEGSEMLADIRPNEDHGKEYIPRNPVTTVTQCVPEMSEHEANTNAVILVNKAMSHVEGGWPKDVDYTEAEHTIRYRKKVEKDEDYIRTVVQLGSSVEDLIKQNNAVDIYQEYFTNVTMDHTSEAPHVKTVTVFKDPNNIKRSASYVNWHPDGSVPKVVVAYSILQFQQQPAGMPLSSYIWDVNNPNTPEYEMVPTSQICCAKFNLKDNNLVGAGQYNGQLAYFDVRKGNGPVEATPIDISHRDPIYDFAWLQSKTGTECMTVSTDGNVLWWDLRKMNECVENMPLKEKNSETTVGGVCLEYDTNAGPTNFMVGTEQGQIFSCNRKAKNPVDRVKYVLSGHHGPIYGLRRNPFNSKYFLSIGDWTARVWVEDTAVKTPILTTKYHPTYLTGGTWSPSRPGVFFTIKMDGAMDVWDLYYKHNEPTLTVQVSDLALTAFAVQESGGTVAVGTSDGCTSVLQLSTGLSEASPAEKANINAMFERETTREKNLEKAIKEAKVKARKEQGRRDEVKDNVTEEQLKALEDEFFKTTDPAVGGGYGAGEGAAAE” here?
The value was “not soluble”.

With “SPSTNRKYPPLPVDKLEEEINRRMADDNKLFREEFNALPACPIQATCEAASKEENKEKNRYVNILPYDHSRVHLTPVEGVPDSDYINASFINGYQEKNKFIAAQGPKEETVNDFWRMIWEQNTATIVMVTNLKERKECKCAQYWPDQGCWTYGNVRVSVEDVTVLVDYTVRKFCIQQVGDVTNRKPQRLITQFHFTSWPDFGVPFTPIGMLKFLKKVKACNPQYAGAIVVHCSAGVGRTGTFVVIDAMLDMMHSERKVDVYGFVSRIRAQRCQMVQTDMQYVFIYQALLEHYLYGDTELEVT” as the sequence, how does the “soluble on expression in E. coli” value read?
The value was “soluble”.

With “SSEADQALVGPKADEPSPPAEEKDEGGGKEAAADAAPGPSASFRLMVTRREPAVKLQYAVSGLEPLSWSEDHRVSVSTARSVAVLELICDVHNPGQDLVIHRTSVPAPLNSCLLKVGSKTEVAECKEKFASSKDPTISQTFMLDRMFNPEGKALPPMRGFKYTSWSPMGCDANGRCLLAALTMDNRLTVQVNLNRLQWVQLVDLTEIYGDRLYETSYRLSKNEAPEGNLGDFAEFQRRHSMQTPVRMEWSSICTTQQVKHNNECRDVSS” as the sequence, how does the “soluble on expression in E. coli” value read?
The value was “soluble”.

Which “soluble on expression in E. coli” value does the source give for “MGSNTLLCAKWLRGLRPRSRVNPLLNRALAAVGAGSPAKGRQAAPLAPIPRSSPVKALDQLTFDNRFARLGDAFSTQVLPEPIADPRLVVASESAMALLDLDPAQAELPVFAELFSGHKLWEEADPRAMVYSGHQFGSYNPRLGDGRGLLLAEVLNDAGEHWDLHLKGAGQTPYSRMGDGRAVLRSSIREFLASEALHALGIATSRALCVIGSSTPVWRETRESAAMLTRLAQSHVRFGHFEYFYYTKQPEQQRVLIDHVLEQHYPECREAEQPYLAMFRTIVERNAELIARWQAYGFCHGVMNTDNMSILGITFDFGPYAFLDDFDANFICNHSDDRGRYSYANQVPIAHWNLSALAQALTTVIEVEPLKEALGLFLPLYQAHYLDLMRRRLGLTTAEDDDMVLVERLLQCMQRGGVDYSLFFRKLGEQPVAEALKVARDDFIDLAGFDAWGADYLARCGREPGNAEGRRERMHAVNPLYVLRNYLAQKAIEAAEAGDYSEVRRLHQVLARPFEEQPGMQAYAERPPEWGKHLEISCSSLEHHHHHH” here?
The value was “soluble”.

With “MKLLRYGPVGEERPALLDELGEIRDLSAHIEDISGKFLLPATLYKLRQLDSASLPLVRGEQRLGACVGHVGKFICVGLNYADHAAETGAEIPQEPVIFNKWTSAIIGPNDDIEIPRNSVKTDWEVELGVVIGTGGRYIGEANAMSYVAGYCVVNDISEREFQLEHGGTWDKGKGCDTFGPIGPWLVTRDEIPDPHQLGLWLDVDGRRYQNGSTRTMIFKIPQIISYLSRFMSLQSGDVISTGTPPGVGLGQKPPVYLHAGQIMRLGIEGLGEQCQKTIQA” as the sequence, how does the “soluble on expression in E. coli” value read?
Its value is “not soluble”.

Which “soluble on expression in E. coli” value does the source give for “MSLPINDQRFNGEDWINNPFFNLLSQHYLLANEHMNSLLENMEYGDENLAKRVRFFTRQYLDALSPANFIHTNPQLMAETLQSHGKNLLRGLHNLLSDVEAGSSRLIIKMTDTEAFKIGENLATTPGKVIFRNSMMELIQYCPRTTKAKSIPLLIVPPWINKYYILDLSPHNSLIRWLVEQGITVFIISWVNPDEEGHHHHHH” here?
Its value is “not soluble”.

Which “soluble on expression in E. coli” value does the source give for “MKRVLIVGATGTIGGVVRQTLLNETDNQLTLFARSANRLKTSERESVIAGDVTKDSDLDKAIAGQDVVFVALSGSLGRFAQKIVAAMDRNKVSRLLFITSMGIYDEIPASVGASGNLSSNPMLRTYREAADVVEASDLNYTLIRPGWFTGGPVDYEITKKGEPFGGHDVSINSIADFVKNAIVDNDYYAHDSVGLNAK” here?
The value was “not soluble”.

Which “soluble on expression in E. coli” value does the source give for “MSGLQGKIADAVKARGYQIMTSPDKAYYWIQANVLKADKMDLRESQGWLSRGYEGAAVGAALGGGITAYNTGSAGTTLGVGLATGLIGMAADAMVEDINYTMITDVQIAERTRTSVRTDNVAALRQGTSGSKIQTSTETGNQHKYQTRVVSSANQVNLKFEEAKPHLEDQLAKSIANIL” here?
Its value is “not soluble”.

With “MLGMHFTPVEVFHRYIMPQIRDHLNDYLWVDMFCGEGNLILPMLDYIDRDRRGEFFRDHIMCFDIDESAVERSIENAMKYGIPQEMARRNIRTRDTLMDYPVLSGRYPVFHITNPPYLYLGYIRKRKDARRHQEYFEGQNDGYQDLYQIAMMNDLRHGIGNMIYIIPSNFFFSDAGTRKIREDFLKIYRIGSCYIFERRIFPSTGTNVMILSFQRSQSPVESIEFDAIRINKHEEKKRYVLRSENNFKPDNEYQDYIRAHFRPDHPVVKFYLTYDEIGKNPGNNRVVLVNSKEYRHGEYERETFSVNDDLYARIKSNPLYVRTVDKGTREGRSGIYSIIRDFGADGIFVKGPTYRTSPIQIFIDPPLSANEALKLMEIFNRTLNDLRERSDSDFMTTYKYSDSAAYVRKYLGLKQVRGIMSTISLEDLKDGASSTDL” as the sequence, how does the “soluble on expression in E. coli” value read?
The value was “not soluble”.
